Data as given in patent US20110294728.
Read-outs that look alike come from different tables or passages of the source.

Assays:
HIV-1 integrase (HIV-1) = experiment: FP
[1] = molecular target: monomeric p51 subunit of HIV-1 RT (UniProt P03366); experiment: stopped-flow, FRET between Trp of RT and bis-ANS, RT incubated with PAW
[2] = molecular target: monomeric p51 subunit of HIV-1 RT (UniProt P03366); experiment: stopped-flow, FRET between Trp of RT and bis-ANS, without PAW

Substance | IC50 (HIV-1 integrase (HIV-1)) [µM] | IC50 (HIV-1 integrase (HIV-1); 3'-processing active, value is IC50 of PAW peptide, 10 mM MgCl2, 37 C) [µM] | kdis (dissociation rate constant of the RT heterodimer in 10% acetonitrile) [1] | kdis (dissociation rate constant of the RT heterodimer in 10% acetonitrile) [2]
21-mer U5 LTR end oligonucleotide | 15.2 | 12.7 |  | 
monomeric p66 subunit of HIV-1 RT |  |  | kdis=1.42±0.007 s^-1 | a dissociation rate constant kdis of 5.30±0.01 s^-1
